Test [1] addresses T1, CD24 (human, UniProt P25063 27-59).
T1 construct: whole, on cells; GPI-anchored cell surface protein; also called human CD24; hCD24
T1 chain (looked up): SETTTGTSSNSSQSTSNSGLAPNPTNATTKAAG
In words: flow cytometry on MCF-7 cells that carry both CD24 and CD47; the two targets are not resolved. The procedure:
(§1) Cells were washed with cold PBS twice, and then incubated with 100 μl FITC-conjugated secondary antibody against human IgG-Fc (Cat #F9512, Sigma) for 45 min. Cells were washed twice and re-suspended in 200 μl PBS. Then, the cells were subject to FACS analysis using a flow cytometer (Merck Millipore, Guava® easyCyte 5HT).

Test [2] concerns the target T2, CD47 (human, UniProt Q08722 19-323).
T2 construct: whole, on cells; also called CD47s on Jurkat cells; CD47s on MCF-7 human breast cancer cells
Described as above. The procedure:
as §1

Test [3] has as its target T1, CD24. The experiment in a line: flow cytometry on CD24+CD47+ MCF-7 cells; positive control. On the procedure: as §1
In test [4] the target is T2, CD47. The experiment in a line: flow cytometry on Jurkat cells (naturally expressing CD47), FITC anti-human IgG-Fc. On the procedure: as §1

The values below come from US20230114491A1 (IMMUNEONCO BIOPHARMACEUTICALS SHANGHAI, published 2023).

T2 sequence (Q08722 19-323): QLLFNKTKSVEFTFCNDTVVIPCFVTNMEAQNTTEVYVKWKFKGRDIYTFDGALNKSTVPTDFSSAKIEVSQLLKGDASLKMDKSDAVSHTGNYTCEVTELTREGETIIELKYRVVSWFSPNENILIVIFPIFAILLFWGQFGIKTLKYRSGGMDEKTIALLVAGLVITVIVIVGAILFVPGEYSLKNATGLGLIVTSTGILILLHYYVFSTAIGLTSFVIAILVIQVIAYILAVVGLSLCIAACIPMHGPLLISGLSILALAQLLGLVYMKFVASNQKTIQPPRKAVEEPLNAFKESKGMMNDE

B1: IMM4702H (bispecific antibody, human IgG1, kappa)
heavy: DVQLQESGPGLVKPSETLSLTCTVSGYSITSGYSWHWIRQPPGKGLEWIGYIHYSGSTKYNPSLKSRVTISVDTSKNQFSLKLSSVTAADTAVYYCARGADYALDYWGQRTSVTVSSASTKGPSVFPLAPSSKSTSGGTAALGCLVKDYFPEPVTVSWNSGALTSGVHTFPAVLQSSGLYSLSSVVTVPSSSLGTQTYICNVNHKPSNTKVDKRVEPKSCDKTHTCPPCPAPELLGGPSVFLFPPKPKDTLMISRTPEVTCVVVDVSHEDPEVKFNWYVDGVEVHNAKTKPREEQYNATYRVVSVLTVLHQDWLNGKEYKCKVSNKALPAPIAATISKAKGQPREPQVYTLPPSREEMTKNQVSLTCLVKGFYPSDIAVEWESNGQPENNYKTTPPVLDSDGSFFLYSKLTVDKSRWQQGNVFSCSVMHEALHNHYTQKSLSLSPGK
light: not shown
notes: Mutated SIRPαD1 linked via (G4S)3 to the N-terminus of each light chain of IMM47H (humanized VH and VL); also called recombinant fusion protein IMM4702H; IMM47H's heavy chain + SIRPαD1-linker-IMM47H's light chain
Turning to B1, the binding result in the test with CD24 [1] and in the test with CD47 [2] was “binds” each time.

B2: IMM4702C (bispecific antibody, human IgG1, kappa)
heavy: DVQLQESGPDLVKPSQSLSLTCTVTGYSITSGYSWHWIRQFPGNKLEWMGYIHYSGSTKYNPSLKSRISITRDTSKNQFFLQLNSVTTEDTATYFCARGADYALDYWGQRTSVTVSSASTKGPSVFPLAPSSKSTSGGTAALGCLVKDYFPEPVTVSWNSGALTSGVHTFPAVLQSSGLYSLSSVVTVPSSSLGTQTYICNVNHKPSNTKVDKRVEPKSCDKTHTCPPCPAPELLGGPSVFLFPPKPKDTLMISRTPEVTCVVVDVSHEDPEVKFNWYVDGVEVHNAKTKPREEQYNATYRVVSVLTVLHQDWLNGKEYKCKVSNKALPAPIAATISKAKGQPREPQVYTLPPSREEMTKNQVSLTCLVKGFYPSDIAVEWESNGQPENNYKTTPPVLDSDGSFFLYSKLTVDKSRWQQGNVFSCSVMHEALHNHYTQKSLSLSPGK
light: not shown
notes: Mutated SIRPαD1 linked via (G4S)3 to the N-terminus of each light chain of IMM47C; also called recombinant fusion protein IMM4702C; IMM47C's heavy chain + SIRPαD1-linker-IMM47C's light chain
On to B2, for which the binding result in the test with CD24 [1] and in the test with CD47 [2] was “binds” each time.

B3: IMM47H (antibody, human IgG1, kappa, V domains shown)
VH: DVQLQESGPGLVKPSETLSLTCTVSGYSITSGYSWHWIRQPPGKGLEWIGYIHYSGSTKYNPSLKSRVTISVDTSKNQFSLKLSSVTAADTAVYYCARGADYALDYWGQRTSVTVSS
VL: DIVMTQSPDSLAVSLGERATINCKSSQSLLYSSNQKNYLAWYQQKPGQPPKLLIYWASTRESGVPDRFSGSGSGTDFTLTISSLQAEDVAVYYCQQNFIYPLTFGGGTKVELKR
notes: IgG antibody with humanized VH and humanized VL; also called anti-CD24 antibody IMM47H
On to B3, for which the binding result with CD24 [3] was “binds”.

B4: IMM4701 (bispecific antibody, human IgG1, kappa)
heavy: not shown
light: DIQMTQSPSSLSASVGDRVTITCKSSQSLLYSSNQKNYLAWYQQKPGKAPKLLIYWASTRESGVPSRFSGSGSGTDFTLTISSLQPEDFATYYCQQNFIYPLTFGGGTKVELKRTVAAPSVFIFPPSDEQLKSGTASVVCLLNNFYPREAKVQWKVDNALQSGNSQESVTEQDSKDSTYSLSSTLTLSKADYEKHKVYACEVTHQGLSSPVTKSFNRGEC
notes: Mutated SIRPαD1 linked via (G4S)3 to the N-terminus of each heavy chain of the anti-CD24 IgG IMM47 (mouse VH, humanized VL); also called recombinant fusion protein IMM4701; SIRPαD1-linker-IMM47's heavy chain + IMM47's light chain
For the molecule B4, the binding result with CD24 [1] and in the test with CD47 [4] was “binds” in each case.
